This note sets out measurements from the supplement of paper PMC12042874.

± gives the uncertainty stated by the source.

A short description of this series: amyloid nucleation score (Sup35N fusion, yeast selection) (log enrichment); library NNK1; higher = more nucleation; inactive = no reads after selection. Put shortly:
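For the nucleation score, DiMSum gave the log enrichment of output over input reads, centred on the mode score of non-aggregating sequences. Psi-negative yeast expressing Sup35N fused to peptides of 20 random codons were induced with 100 μM copper sulfate for 24 hours and grown 7 days at 30°C on medium lacking adenine and uracil. Input and output plasmid inserts were Illumina-sequenced, and sequences with under 100 input reads were excluded.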
GLMVHRDFGIECLQHETHFG yielded an amyloid nucleation score of 0.074 ± 0.26.
Under KHYFCKMSV stands -0.029 ± 0.37.
In the case of ESARCVRVTALSLWHRDQRS, the amyloid nucleation score amounted to 1.02 ± 0.8.
In the case of NLGLDVCEYIVVTWLTNDWS it was -0.258 ± 0.51; in that of LQSTFFFYGGCKRVWSMMYH, 4.45 ± 0.12.
Under EGRSWLGTESGLYGNVREND stands 0.577 ± 0.68.
For LPGDFYGSYRN, the amyloid nucleation score result was “inactive”.
As to DRTLDDPGVHHASKAE, the amyloid nucleation score result was “inactive”.
With ISLISYFFSFLWLYYYFFEF, the amyloid nucleation score amounted to 1.06 ± 0.28.
Under SLRSQCGSVNLIFMVMFSVW stands -0.236 ± 1.2; under LGHIILSAFFYRSFNLEVSL, “inactive”; under CFPRSRRRQRSFNLCVRESR, 1.13 ± 0.57.
Turning to VRVISLEVLGYFCPRRLAGA, the amyloid nucleation score entry was “inactive”.
With RAKLFHWLNWR, the amyloid nucleation score came out at 0.282 ± 0.67.
In the case of LSRPVDNSCLESMRRVDWTH it was -0.444 ± 1.2; in that of CIDYYLCLNMYRTGWYLRLC, “inactive”; in that of LFLECNDTLHRATTGVNLFK, 0.206 ± 1.6.
As to LFRWEGVATACSCGDDASFA, the amyloid nucleation score was -0.668 ± 1.1.
As to VWFVVGGGE, the amyloid nucleation score was found to be 1.7 ± 0.42.
In the case of MSRIVF it was -0.003 ± 0.71.
Under AAMCLLIWRACRISVDMHMC stands -0.205 ± 0.27; under FYPRM, 0.781 ± 0.54; under VMSVSWVCIGCLSEDISWVF, 5.884 ± 0.044.
In the case of QCRERLYPHPGLI it was 1.01 ± 0.37; in that of VCSKGACSLGDVNCDSTDVG, 0.104 ± 0.63.
On to TLTDSN, for which the amyloid nucleation score is -0.221 ± 0.53.
As for LFRFCTIILLAYGLSLCNDI, the amyloid nucleation score result is “inactive”.
In turn, RYGGRCNTR showed an amyloid nucleation score of 0.016 ± 1.7.
Under IHNNRVGVYCILNNTQRVE stands 0.2 ± 0.61.
With GNSVIDRSFGIFNCYEGLSC, the amyloid nucleation score stood at 1.62 ± 0.72.
In the case of ILSLNCFYRTWRLEMNKSYK it was 1.94 ± 0.52; in that of WSKLYIAK, -0.69 ± 0.41; in that of HLSALLANSNLNKM, -0.359 ± 0.52.
In the case of SWWLICYYVSWYFSD it was -1.69 ± 1.1.
With GIPSKTFDVCSSPNIKSILF, the amyloid nucleation score was determined as 0.317 ± 1.2.
Under LLRLRISEIGSRLIKVWKSW stands 0.155 ± 0.35; under CDNRRNFSSWVVDISKYITI, -0.946 ± 0.57.
Substance WLEYYYCMLHDELIS returned an amyloid nucleation score of 0.109 ± 0.29.
As to RWVPYHFV, the amyloid nucleation score came to 2.77 ± 0.13.
In the case of LYTLRLGI it was -0.134 ± 0.84; in that of TSVDVFS, 0.656 ± 0.62.
Under NELNLYGSEFAFYWVDKLCH stands 4.13 ± 0.073; under NKRVHWLSGRLWIWYHWWVI, -1.5 ± 1.7.
Under VRSCTWCGSEGPGTIPWLGD stands 0.443 ± 0.39; under VRSPDSLVVWDLVRH, -0.367 ± 0.49; under YWSLVVAAWRMENGWHGFLL, 0.059 ± 0.39.
As for PFSAWYNNNTLTYSIDCINF, the amyloid nucleation score was found to be 0.58 ± 0.19.
Under ANFAIFWSFYRGWCSFKIQS stands 0.871 ± 0.5; under YFDWLGCLLTWQRKYVQT, -0.048 ± 0.93.
VCFVFMS came in with an amyloid nucleation score of -0.211 ± 0.41.
In turn, FTLMGNSCHRGLV had an amyloid nucleation score of -0.66 ± 0.85.
The substance WLSETAAWENTYRCLRILHG showed an amyloid nucleation score of -0.446 ± 0.4.
Under KTWNVCALARGWECEAINVW stands -0.264 ± 0.3; under RGYLAWLSGDQA, 1.68 ± 0.52; under NLCFLITNYINRLNFYNFVV, 0.807 ± 0.93.
Under AFSANF stands 0.779 ± 0.42; under FPDMCILRILYVKVLV, -1.52 ± 1.6; under FVVVHRSASGPEIQFLKGGR, -0.684 ± 0.4.
Under IYRFQWPWDMLMYCWTLMSV stands -0.776 ± 0.93.
Substance ALSDFGDKLSPPEDLRLEHW returned an amyloid nucleation score of 1.07 ± 0.62.
Under CWDLTTVCHNFNRYHSWVSR stands 0.431 ± 1.1; under ARGHGFQPVGPLGSVILMAR, -0.302 ± 0.68.
In the case of RQLKVARTGLWLGFTFCIQE it was 0.24 ± 0.89; in that of FNIIASPSWVSVRNHGNLWV, 4.91 ± 0.062; in that of ADIPCQNCVSYVRYFGLNVI, -0.094 ± 0.48.
The substance PSGTQCTAE showed an amyloid nucleation score of -0.047 ± 0.65.
Under SWGTGVIPMVRNSLRECTEL stands -0.388 ± 0.98; under DFAFYTVTLCFE, 0.809 ± 0.35.
As to RVLLSSVSDM, the amyloid nucleation score is -0.766 ± 2.4.
In the case of MVHCRQI it was 0.219 ± 0.32; in that of SYECVQNRQCAIGGNRSERF, 0.666 ± 0.93; in that of QTRWWEYHHNLFVLQITFGG, 1.04 ± 0.27.
Under SVSWYAMLRLSEIRDRCKSF stands 0.278 ± 0.32.
Substance ELCAQYVIFSFASSRSYDSY had an amyloid nucleation score of 0.579 ± 0.28.
For FLNRYICKFDKVSQHGVRLW, the amyloid nucleation score worked out at 0.261 ± 0.84.
CDRLIKVSYRFIGAADRRWM: the amyloid nucleation score amounted to 1.35 ± 0.76.
In the case of PVCFAFQFRATPNMQVHQPS it was -0.108 ± 0.75; in that of LVLGSSLWAGCCDQPHGWQV, -0.211 ± 0.54; in that of GHIDAQWPRFRCHMA, 0.147 ± 0.32.
Under GRHRRSRRM stands “inactive”; under VGYEVLSHYDAGIVSLVYLS, 0.645 ± 0.53; under RRPIGMACGDGRVYFWDHTA, -0.036 ± 0.47.
Under SAGHLNYNEWLNGCGDRGKC stands -0.367 ± 0.53; under NGYIKRVFFSVNMFSMHTSF, 0.079 ± 0.48; under SCRSGRRRPLPTGGPILATN, -0.015 ± 0.64.
Regarding QGLSYFDCSDWLNYLFFKSY, the amyloid nucleation score was 0.126 ± 0.27.
With MMAFCS, the amyloid nucleation score was 0.264 ± 0.39.
In the case of TSTVVFFKFYLTKFWISVPT it was 1.28 ± 0.36.
In the case of ICTSSTKGRLCRSCPLASRL it was 0.205 ± 0.38.
Substance NGNLKRSSEVFHCFGISLEF gave an amyloid nucleation score of 0.694 ± 0.36.
Under SKEESPMTFVWILGGHSELS stands -0.448 ± 0.32; under AKSVYILVR, “inactive”.
Substance LVWVS registered an amyloid nucleation score of 0.134 ± 0.65.
For IIEIFVDIRYHFMY, the amyloid nucleation score came to 1.91 ± 0.38.
PVHVLYFTWMNQECCGHNYL had an amyloid nucleation score of 6.5 ± 0.07.
Under EAIISNCNFVIQIMCYHYTA stands “inactive”.
VFSKHRFSIYCSRYAEPTTR gave an amyloid nucleation score of 0.002 ± 0.31.
Substance DVISLTHVEKSWLVSLWKRS registered an amyloid nucleation score of -0.045 ± 0.69.
NIASGFGFPYRGVLSC displayed an amyloid nucleation score of 0.184 ± 1.
Regarding PLHCSVGRIRSGLMCLKLTC, the amyloid nucleation score is -0.17 ± 1.1.
Under VSCLNLIVSWYYANFGN stands -0.17 ± 0.32; under MKDVILRTWYLRQGEGWGAS, 0.026 ± 0.4; under IRLTILLSKVDTDE, 0.885 ± 0.42.
In the case of RTLGDSNGNNVGLQVVPKCL it was -0.108 ± 0.31.
In the case of DFVLIFLRICSCPSHTNFYL it was 3.45 ± 0.12; in that of NMHNQVAFISCSFILFDVIN, 6.95 ± 0.07; in that of LLDRRVGKLGLDCMLLDLCQ, 0.752 ± 0.42.
Regarding LDGFSVNLCWFRHTERCVAC, the amyloid nucleation score was -0.224 ± 0.78.
In the case of EGQTGLLVWYGSHSVRLGNF, the amyloid nucleation score is -0.957 ± 2.4.
Regarding YTCLHGGSGVPPYLFQEHYS, the amyloid nucleation score came to 0.193 ± 0.39.
Under FSKAMNFRDRTSSQSQ stands -0.581 ± 1.2; under WHTCYHSWSASIVLAPVSTT, -0.009 ± 0.39.
For LQLWLMDGSSRGRWV, the amyloid nucleation score was found to be 0.12 ± 0.64.
Under LLGIEFTSDLLPIPSISPNE stands 0.239 ± 0.63; under LEFRPRFSSISYHMIMFVGH, “inactive”.
Under GKENSVTGHRGYSDVAVGMQ stands 0.286 ± 1.4.
Under YAPWGGKNSRYAGSVM stands 0.701 ± 0.33; under KMEPGPRAKALGTNRRFLLK, “inactive”.
In the case of NYLGRVLFFYNWFDKQYRSK, the amyloid nucleation score amounted to 5.878 ± 0.048.
For RFAVCTNFANIFRLQEDQIR, the amyloid nucleation score came out at 0.481 ± 0.33.
In the case of RCCSFRLYLFTEG it was 4.78 ± 0.068; in that of TYWMHCEWFSV, -1.4 ± 2.7; in that of VERLAT, -0.259 ± 0.73.
On to VSKSYPIPCISKVS, for which the amyloid nucleation score is 0.336 ± 0.52.
With NLTFGYVGHK, the amyloid nucleation score came to 3.91 ± 0.087.
Consider MLLSWMNAMVFTRRVHLAEP, for which the amyloid nucleation score is -0.469 ± 1.2.
In the case of NLTWAGTLY it was -0.875 ± 1.5; in that of YCMCCNNRVLMVYHCTQVSA, “inactive”; in that of LGSGQGVNLSALPRFEYACR, 0.527 ± 0.44.
In the case of HMNVPIDRSLGSFFFAKVMK it was 0.867 ± 0.2; in that of VLLADVCLSVERGKVTDPGS, 1.25 ± 0.58; in that of LSSVNGVLGRIGHLVAPSSF, -0.066 ± 1.
In the case of MNALGSTYWDQQSAQQSMWS, the amyloid nucleation score came to 4.92 ± 0.068.
In the case of VGQLSTFCLGILIVLSVN it was 0.338 ± 0.18.
Take WLRRCEGGKMSYSSLSTVES: the amyloid nucleation score is -0.563 ± 0.45.
Under NSGVVRLFPYFMYRTAWLKS stands 0.224 ± 0.41; under DRNYVGELTEFTGVMGRGRQ, -0.858 ± 1.1.
In the case of ECTRSGVFSCNSWIKYESSM it was -0.145 ± 0.31.
